Source: patent US20060189522A1 (IMPERIAL INNOVATIONS, published 2006)

Assays:
[1] = target: T1, GLP-1 receptor in rat hypothalamic membrane preparations (rat, UniProt P32301 22-463); assay: competition with [125I]GLP-1 (100 pM) on rat hypothalamic membranes, radioligand displacement
T1 construct: whole, on cells; Native receptor in a rat hypothalamic membrane preparation, not intact cells and not a recombinant construct; also called GLP-receptor; GLP-IR
T1 sequence (looked up): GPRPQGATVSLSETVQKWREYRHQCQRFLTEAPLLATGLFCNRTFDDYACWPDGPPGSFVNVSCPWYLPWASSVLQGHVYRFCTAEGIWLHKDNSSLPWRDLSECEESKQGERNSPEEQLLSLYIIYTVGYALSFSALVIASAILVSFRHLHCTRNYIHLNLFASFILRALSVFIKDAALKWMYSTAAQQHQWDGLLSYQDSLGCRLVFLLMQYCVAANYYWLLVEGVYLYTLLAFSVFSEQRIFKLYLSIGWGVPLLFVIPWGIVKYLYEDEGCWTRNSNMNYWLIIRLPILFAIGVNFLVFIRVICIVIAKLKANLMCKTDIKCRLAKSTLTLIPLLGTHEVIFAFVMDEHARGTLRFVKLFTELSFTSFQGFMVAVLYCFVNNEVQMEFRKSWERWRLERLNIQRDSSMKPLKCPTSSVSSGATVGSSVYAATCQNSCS
Experimental: (§1) Membranes were incubated at room temperature for 90 min. Bound and free radioactivity were separated by centrifugation (2 min, 4° C.). Pelleted membranes were washed with assay buffer (0.5 ml, ice-cold), and the membranes were centrifuged as described above. The supernatant was removed, and the radioactivity in the pellet was counted using a γ-counter. […] All curves were constructed with points in triplicate. IC₅₀ values were calculated using the Prism 3 program (GraphPad Software, Inc., San Diego, Calif.).

[2] = target: T1, GLP-1 receptor in rat hypothalamic …; assay: competition with [125I]GLP-1 on rat hypothalamic membranes, radioligand displacement
Experimental: as §1

B1: human oxyntomodulin (OXM) (peptide)
peptide: HSQGTFTSDYSKYLDSRRAQDFVQWLMNTKRNKNNIA
notes: Bought from IAF BioChem Pharma
Q: How did the IC50 [1] turn out when B1 was run?
A: 8.2 nM

Q: What about the “affinity relative to GLP-1” value [2] of the same binder?
A: ~2 orders of magnitude weaker than GLP-1
